Data on one substance can be found in PMC3064667.

In this assay the target is T1, human IL-10 receptor (human) (UniProt Q13651).
T1 sequence 1: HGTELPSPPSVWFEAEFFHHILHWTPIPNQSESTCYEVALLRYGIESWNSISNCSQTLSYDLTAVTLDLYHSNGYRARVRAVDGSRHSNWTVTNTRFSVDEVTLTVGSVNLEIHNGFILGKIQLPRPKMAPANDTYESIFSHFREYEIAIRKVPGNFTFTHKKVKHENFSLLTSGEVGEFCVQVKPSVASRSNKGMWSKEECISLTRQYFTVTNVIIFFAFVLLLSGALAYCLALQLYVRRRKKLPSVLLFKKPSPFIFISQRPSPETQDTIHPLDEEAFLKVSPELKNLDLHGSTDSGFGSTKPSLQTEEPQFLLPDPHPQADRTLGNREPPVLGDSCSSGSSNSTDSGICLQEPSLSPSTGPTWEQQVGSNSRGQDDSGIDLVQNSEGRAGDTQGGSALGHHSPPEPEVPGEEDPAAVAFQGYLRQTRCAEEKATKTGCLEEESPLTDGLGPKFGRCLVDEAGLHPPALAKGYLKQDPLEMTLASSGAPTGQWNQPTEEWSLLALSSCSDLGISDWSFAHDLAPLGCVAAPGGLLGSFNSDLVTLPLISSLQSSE
T1 sequence 2: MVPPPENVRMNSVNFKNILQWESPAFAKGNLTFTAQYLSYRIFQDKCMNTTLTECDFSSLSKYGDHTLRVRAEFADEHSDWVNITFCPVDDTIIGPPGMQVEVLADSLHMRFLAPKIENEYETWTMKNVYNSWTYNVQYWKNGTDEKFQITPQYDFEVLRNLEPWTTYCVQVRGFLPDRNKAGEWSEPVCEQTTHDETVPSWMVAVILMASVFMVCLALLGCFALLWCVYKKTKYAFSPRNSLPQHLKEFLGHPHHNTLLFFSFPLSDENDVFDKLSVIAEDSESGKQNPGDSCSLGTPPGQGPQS

recombinant bovine IL-10, sequence (P43480 19-178): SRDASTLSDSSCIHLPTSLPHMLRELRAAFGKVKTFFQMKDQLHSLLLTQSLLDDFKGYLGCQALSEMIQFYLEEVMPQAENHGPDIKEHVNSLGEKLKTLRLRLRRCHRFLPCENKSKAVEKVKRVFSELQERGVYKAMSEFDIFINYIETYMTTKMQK

For “recombinant bovine IL-10 (from UniProt P43480 19-178) (ligand)”, the CD83 expression by LPS stimulated DCs, average percentage compared to cells only stimulated with LPS; bovine IL-10 0.25-20 ng/ml (130.5 at 0.25 ng/ml falling to 38.2 at 20 ng/ml) (% of cells only stimulated with LPS) stood at 130; the CD86 expression by LPS stimulated DCs, average percentage compared to cells only stimulated with LPS; bovine IL-10 0.25-20 ng/ml (106.3 at 0.25 ng/ml falling to 51.0 at 20 ng/ml) (% of cells only stimulated with LPS) turned out to be 106; the IL-1β production by LPS stimulated monocytes with 10 ng/ml bovine IL-10, average percentage compared to cells only stimulated with LPS (% of cells only stimulated with LPS) turned out to be 30.3; the IL-12 production by LPS stimulated DCs, average percentage compared to cells only stimulated with LPS; bovine IL-10 0.25-20 ng/ml (102.9 at 0.25 ng/ml falling to 1.5 at 20 ng/ml) (% of cells only stimulated with LPS) was found to be 103. The substance further showed a TNF-α production by LPS stimulated DCs, average percentage compared to cells only stimulated with LPS; bovine IL-10 0.25-20 ng/ml (143.9 at 0.25 ng/ml falling to 0.9 at 20 ng/ml) (% of cells only stimulated with LPS) of 144 and a TNF-α production by LPS stimulated monocytes with 10 ng/ml bovine IL-10, average percentage compared to cells only stimulated with LPS (% of cells only stimulated with LPS) of 14.2.
